Source: patent US5482996A, “Protein-containing polymers and a method of synthesis of protein-containing polymers in organic solvents” (University of Pittsburgh, priority 1993, dated 1996)

B1: Subtilisin Carlsberg, native (pure subtilisin standard) (Bacillus licheniformis) (protein)
chain: AQTVPYGIPLIKADKVQAQGFKGANVKVAVLDTGIQASHPDLNVVGGASFVAGEAYNTDGNGHGTHVAGTVAALDNTTGVLGVAPSVSLYAVKVLNSSGSGSYSGIVSGIEWATTNGMDVINMSLGGASGSTAMKQAVDNAYAKGVVVVAAAGNSGSSGNTNTIGYPAKYDSVIAVGAVDSNSNRASFSSVGAELEVMAPGAGVYSTYPTNTYATLNGTSMASPHVAGAAALILSKHPNLSASQVRNRLSSTATYLGSSFYYGKGLINVEAAAQ
notes: purchased Sigma Chemical Co
B2: Subtilisin Carlsberg, unmodified fraction purified from the PEG modification reaction mixture (Bacillus licheniformis) (protein)
chain: B1 chain
notes: purchased Sigma Chemical Co

Key:
[1] = substrate: C[C@H](NC(=O)CCC(=O)O)C(=O)N[C@@H](C)C(=O)N1CCC[C@H]1C(=O)N[C@@H](Cc1ccccc1)C(=O)Nc1ccc([N+](=O)[O-])cc1; test: Hydrolysis of peptide p-nitroanilide substrate, kinetic constants; type: biochemical; settings: other: Tris-HCl buffer (0.1M, pH 8.6)
Description: (§1) Kinetic studies of the modified protein were performed using substrate (N-succinyl-L-alanyl-L-alanyl-L-prolyl-L-phenylalanyl p-nitroanilide) in 0.1M Tris-HCl buffer, pH 8.6. The purified HPLC fractions (three total) were tested for activity while increasing the substrate concentrations in equal increments. Substrate concentration versus rate was plotted to determine Vmax and Km using non-linear regression analysis. A standard of pure subtilisin was analyzed as a control.
As set forth above, the activity of the modified enzymes was assessed with the artificial peptide substrate succinyl-L-alanyl-L-alanyl-L-prolyl-L-phenylalanyl p-nitroanilide. A sample of 30 mg modified protein powder was dissolved in tetrahydrofuran, and filtered with a solvent resistant 0.22 μm filter in order to remove the insoluble native protein. The solvent was evaporated and, as mentioned above, values for Vmax and Km were determined.

[2] = substrate: C[C@H](NC(=O)CCC(=O)O)C(=O)N[C@@H](C)C(=O)N1CCC[C@H]1C(=O)N[C@@H](Cc1ccccc1)C(=O)Nc1ccc([N+](=O)[O-])cc1; test: as above; type: biochemical; settings: other: Tris-HCl buffer (0.1M, pH 8.6); remark: listed apart in the source
Description: as §1
Before reacting PEG-subtilisin with other materials it is necessary to fully characterize the activity and stability of the "bio-monomer". Using solubility, IMAC, and HPLC the modified protein was separated into predominantly singly or doubly modified protein fractions. […] Thus, the activities and stabilities noted are average properties for the sample being studied. For comparison to the native protein, unmodified protein was purified from the modification reaction mixture and characterized to some degree.
As set forth above, the activity of the modified enzymes was assessed with the artificial peptide substrate succinyl-L-alanyl-L-alanyl-L-prolyl-L-phenylalanyl p-nitroanilide. […] The solvent was evaporated and, as mentioned above, values for Vmax and Km were determined.

Protein	Km [1] [µM]	Km [2] [µM]
B1	120	–
B2	–	170
